From article PMC3814645 (Genes & Development, 2013)

Target: eIF4E (endogenous) (human (endogenous in HCT116), UniProt P06730 1-217)
Test: co-IP

eIF4E (endogenous), sequence (P06730 whole entry): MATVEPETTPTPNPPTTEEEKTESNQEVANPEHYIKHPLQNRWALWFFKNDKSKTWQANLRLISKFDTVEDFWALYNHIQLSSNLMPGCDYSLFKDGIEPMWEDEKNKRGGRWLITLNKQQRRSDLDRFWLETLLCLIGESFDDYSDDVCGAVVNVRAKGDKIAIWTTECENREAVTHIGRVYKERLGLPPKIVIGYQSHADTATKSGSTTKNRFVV

B1: p-RNPC1 (endogenous RNPC1 phosphorylated at Ser195) (natural protein, human (endogenous in HCT116 and RKO), UniProt Q9H0Z9 1-239, looked up)
chain: MLLQPAPCAPSAGFPRPLAAPGAMHGSQKDTTFTKIFVGGLPYHTTDASLRKYFEGFGDIEEAVVITDRQTGKSRGYGFVTMADRAAAERACKDPNPIIDGRKANVNLAYLGAKPRSLQTGFAIGVQQLHPTLIQRTYGLTPHYIYPPAIVQPSVVIPAAPVPSLSSPYIEYTPASPAYAQYPPATYDQYPYAASPATAASFVGYSYPAAVPQALSAAAPAGTTFVQYQAPQLQPDRMQ
modifications: phosphoserine at 195
ratio of p-RNPC1 versus RNPC1 in anti-eIF4E immunocomplexes: 0.12
